Paper PMC9524272 (Frontiers in Immunology, 2022)

What was measured:
[1] = target: SARS-CoV-2 spike receptor binding domain, Wuhan-Hu-1 (WT) (SARS-CoV-2 Wuhan-Hu-1, UniProt P0DTC2)
[2] = target: SARS-CoV-2 spike receptor binding domain, Delta B.1.617.2 (SARS-CoV-2 Delta B.1.617.2 (on …, strain))
[3] = target: SARS-CoV-2 spike receptor binding domain, Beta B.1.351 (SARS-CoV-2 Beta B.1.351 (on Wuhan-Hu-1 …, strain))
[4] = target: SARS-CoV-2 spike receptor binding domain, Omicron BA.1 (IPBCAMS-OM01/2021) (SARS-CoV-2 Omicron BA.1, isolate …, strain)
[5] = target: SARS-CoV-2 Spike RBD Omicron BA.4&BA.5 (SARS-CoV-2 Omicron BA.4/BA.5, strain)

B1: H7 (VHH)
VHH: QVQLVESGGGLVQPGGSLRLSCAASGYSYRSTYYLGWFRQAPGQGLEAVAAIYGAGSTYYADSVKGRFTISRDNSKNTLYLQMNSLRAEDTAVYYCAAGDESTRGYGYSWDYWGQGTLVTVSS
Kd [1]: 4.4 nM
Kd [2]: 7.2 nM
Kd [3]: 3.7 nM
binding result [4]: binds
binding result [5]: binds
